Holding throughout (test): Km, Vmax and Vmax/Km of substrates for plasmin (pig)
Common to all, as to type: biochemical, Porcine (pig)

Substrate in series [1]: Cc1cc(C)c(S(=O)(=O)NCCCC[C@@H](N)C(=O)N[C@@H](Cc2ccccc2)C(=O)N[C@@H](CCCCN)C(=O)Nc2ccc(O)c(C(=O)O)c2)c(C)c1
To be noted: other: TABLE 2, CHA substrates, plasmin (pig), 2,6-xylenol 615 nm.

Substrate in series [2]: Cc1ccc(S(=O)(=O)NCC(=O)N2CCC[C@H]2C(=O)N[C@@H](CCCCN)C(=O)Nc2ccc([N+](=O)[O-])cc2)cc1
Substrate in series [3]: NCCCC[C@H](NC(=O)[C@H](Cc1ccccc1)NC(=O)[C@H](N)CCCCNC(=O)OCc1ccccc1)C(=O)Nc1ccc(O)c(C(=O)O)c1
The settings on record: other: TABLE 2, CHA substrates, plasmin (pig), 2,6-xylenol 615 nm.

Substrate in series [4]: NCCCC[C@H](NC(=O)[C@H](Cc1ccccc1)NC(=O)[C@H](N)CCCCNC(=O)c1ccc2ccccc2c1)C(=O)Nc1ccc(O)c(C(=O)O)c1
The settings on record: other: TABLE 2, CHA substrates, plasmin (pig), 2,6-xylenol 615 nm.

Substrate in series [5]: NCCCC[C@H](NC(=O)[C@H](Cc1ccccc1)NC(=O)[C@H](N)CCCCNC(=O)Cc1ccccc1)C(=O)Nc1ccc(O)c(C(=O)O)c1
To be noted: other: TABLE 2, CHA substrates, plasmin (pig), 2,6-xylenol 615 nm.

Substrate in series [6]: Cc1ccc(C(=O)NCCCC[C@@H](N)C(=O)N[C@@H](Cc2ccccc2)C(=O)N[C@@H](CCCCN)C(=O)Nc2ccc(O)c(C(=O)O)c2)cc1
The settings on record: other: TABLE 2, CHA substrates, plasmin (pig), 2,6-xylenol 615 nm.

Substrate in series [7]: NCCCC[C@H](NC(=O)[C@H](Cc1ccccc1)NC(=O)[C@H](N)CCC(=O)OCCc1ccccc1)C(=O)Nc1ccc([N+](=O)[O-])cc1
To be noted: other: TABLE 1, PNA substrates, plasmin (pig), 405 nm.

Substrate in series [8]: NCCCC[C@H](NC(=O)[C@H](Cc1ccccc1)NC(=O)[C@H](N)CCCCNC(=O)c1ccccc1)C(=O)Nc1ccc(O)c(C(=O)O)c1
To be noted: other: TABLE 2, CHA substrates, plasmin (pig), 2,6-xylenol 615 nm.

Substrate in series [9]: NCCCC[C@H](NC(=O)[C@H](Cc1ccccc1)NC(=O)[C@H](N)CC(=O)OC1CCCCC1)C(=O)Nc1ccc(O)c(C(=O)O)c1
To be noted: other: TABLE 2, CHA substrates, plasmin (pig), 2,6-xylenol 615 nm.

Substrate in series [10]: CC(=O)NCCCC[C@@H](N)C(=O)N[C@@H](Cc1ccccc1)C(=O)N[C@@H](CCCCN)C(=O)Nc1ccc(O)c(C(=O)O)c1
To be noted: other: TABLE 2, CHA substrates, plasmin (pig), 2,6-xylenol 615 nm.

Substrate in series [11]: NCCCC[C@H](NC(=O)[C@H](Cc1ccccc1)NC(=O)[C@H](N)CCC(=O)NCCc1ccccc1)C(=O)Nc1ccc(O)c(C(=O)O)c1
To be noted: other: TABLE 2, CHA substrates, plasmin (pig), 2,6-xylenol 615 nm.

Substrate in series [12]: CC(C)C[C@H](NC(=O)[C@H](N)C(C)C)C(=O)N[C@@H](CCCCN)C(=O)Nc1ccc([N+](=O)[O-])cc1
Substrate in series [13]: NCCCC[C@H](NC(=O)[C@H](Cc1ccccc1)NC(=O)[C@H](N)CCC(=O)NCCc1ccccc1)C(=O)Nc1ccc([N+](=O)[O-])cc1
To be noted: other: TABLE 1, PNA substrates, plasmin (pig), 405 nm.

Substrate in series [14]: CC(C)[C@@H](N)C(=O)N[C@@H](Cc1ccccc1)C(=O)N[C@@H](CCCCN)C(=O)Nc1ccc(O)c(C(=O)O)c1
To be noted: other: TABLE 2, CHA substrates, plasmin (pig), 2,6-xylenol 615 nm.

Substrate in series [15]: Cc1ccc(S(=O)(=O)Oc2ccc(C[C@@H](N)C(=O)N[C@@H](Cc3ccccc3)C(=O)N[C@@H](CCCCN)C(=O)Nc3ccc(O)c(C(=O)O)c3)cc2)cc1
To be noted: other: TABLE 2, CHA substrates, plasmin (pig), 2,6-xylenol 615 nm.

Substrate in series [16]: Cc1ccc(S(=O)(=O)NCCCC[C@@H](N)C(=O)N[C@@H](Cc2ccccc2)C(=O)N[C@@H](CCCCN)C(=O)Nc2ccc(O)c(C(=O)O)c2)cc1
To be noted: other: TABLE 2, CHA substrates, plasmin (pig), 2,6-xylenol 615 nm.

Substrate in series [17]: Cc1ccc(CCNC(=O)CC[C@@H](N)C(=O)N[C@@H](Cc2ccccc2)C(=O)N[C@@H](CCCCN)C(=O)Nc2ccc([N+](=O)[O-])cc2)cc1
To be noted: other: TABLE 1, PNA substrates, plasmin (pig), 405 nm.

Substrate in series [18]: Cc1ccc(S(=O)(=O)NCCC[C@@H](N)C(=O)N[C@@H](Cc2ccccc2)C(=O)N[C@@H](CCCCN)C(=O)Nc2ccc(O)c(C(=O)O)c2)cc1
The settings on record: other: TABLE 2, CHA substrates, plasmin (pig), 2,6-xylenol 615 nm.

Substrate in series [19]: NCCCC[C@H](NC(=O)[C@H](Cc1ccccc1)NC(=O)[C@H](N)CCC(=O)NCCCc1ccccc1)C(=O)Nc1ccc([N+](=O)[O-])cc1
The settings on record: other: TABLE 1, PNA substrates, plasmin (pig), 405 nm.

Substrate in series [20]: NCCCC[C@H](NC(=O)[C@H](Cc1ccccc1)NC(=O)[C@H](N)CCCCNS(=O)(=O)c1cccc2ccccc12)C(=O)Nc1ccc(O)c(C(=O)O)c1
The settings on record: other: TABLE 2, CHA substrates, plasmin (pig), 2,6-xylenol 615 nm.

Substrate in series [21]: Cc1ccc(S(=O)(=O)NCCCC[C@@H](N)C(=O)N[C@@H](CC(C)C)C(=O)N[C@@H](CCCCN)C(=O)Nc2ccc(O)c(C(=O)O)c2)cc1
To be noted: other: TABLE 2, CHA substrates, plasmin (pig), 2,6-xylenol 615 nm.

[22] abbreviates: other: Porcine Plasmin, comparison table in description.
Where [23] appears, read: other: TABLE 1, PNA substrates, plasmin (pig), 405 nm.

B1: plasmin (pig) (Sus scrofa) (protein)
chain: RIYLSECKTGNGKNYRGTTSKTKSGVICQKWSVSSPHIPKYSPEKFPLAGLEENYCRNPDNDEKGPWCYTTDPETRFDYCDIPECEDECMHCSGEHYEGKISKTMSGIECQSWGSQSPHAHGYLPSKFPNKNLKMNYCRNPDGEPRPWCFTTDPNKRWEFCDIPRCTTPPPTSGPTYQCLKGRGENYRGTVSVTASGHTCQRWSAQSPHKHNRTPENFPCKNLEENYCRNPDGETAPWCYTTDSEVRWDYCKIPSCGSSTTSTEYLDAPVPPEQTPVAQDCYRGNGESYRGTSSTTITGRKCQSWVSMTPHRHEKTPGNFPNAGLTMNYCRNPDADKSPWCYTTDPRVRWEYCNLKKCSETEQQVTNFPAIAQVPSVEDLSEDCMFGNGKRYRGKRATTVAGVPCQEWAAQEPHRHSIFTPETNPRAGLEKNYCRNPDGDDNGPWCYTTNPQKLFDYCDVPQCVTSSFDCGKPKVEPKKCPARVVGGCVSIPHSWPWQISLRHRYGGHFCGGTLISPEWVLTAKHCLEKSSSPSSYKVILGAHEEYHLGEGVQEIDVSKLFKEPSEADIALLKLSSPAIITDKVIPACLPTPNYVVADRTACYITGWGETKGTYGAGLLKEARLPVIENKVCNRYEYLGGKVSPNELCAGHLAGGIDSCQGDSGGPLVCFEKDKYILQGVTSWGLGCALPNKPGVYVRVSRFVTWIEEIMRRN
On to B1, for which the Km (as a rule, the concentration of substrate that gives half-maximal velocity) was determined as 272 µM in [1]; 278 µM in series [2] (setting [22]); 278 µM in [2] (setting [23]); 496 µM in [3]; 325 µM in [4]; 357 µM in series [5]. The Michaelis constant (Km) in series [6] amounted to 76.2 µM; in series [7], 31.1 µM; in series [8], 334 µM; in series [9], 379 µM; in [10], 250 µM; in [11], 397 µM. In addition, the Km in [12] (setting [22]) is 348 µM; in series [12] (setting [23]), 348 µM; in [13], 27.9 µM; in series [14] it was 631 µM; in series [15], 154 µM; in [16], 206 µM. The Michaelis constant (Km) is 39.4 µM in series [17]; 542 µM in [18]; 39.3 µM in [19]; 596 µM in series [20]; 1000 µM in [21].

Source of the values: patent US4605614A, “Method for measuring plasmin” (Nitto Boseki Co., Ltd., priority 1981, dated 1986).
